# From PMC5013273
# Molecular target: zona pellucida of in vitro matured (IVM) porcine oocytes (pig (endogenous on porcine oocytes))
molecule,measurement,value
"full-length rabbit OVGP1, recombinant, histidine-tagged (natural protein)","ZP digestion time in 0.5% pronase after 1 hr exposure of IVM porcine oocytes to 5, 50 and 125 μg/ml rOVGP1",989 min
"truncated porcine OVGP1 lacking region D (regions A and B, 481 aa), recombinant, histidine-tagged (domain or fragment) HKLVCYFANWAFSRPGPASILPRDLDPFLCTHLVFAFASMNDSQIVAKDARDESIFYPEFNQLKERNEKLKTLLSIGGWNFGTSRFTTMLSTFTNREKFIRSAIGLLRTHGFDGLDLFFLYPGLRGSPRRDRWNFLFLLEELLLAFRREAQLTMRPRLLLSAAVSADPHVIQKAYDVRLLGRLLDFINVLSYDLHGSWEKVTGHNSPLFSLSDDPKSSAYTMNYWRKLGAPPEKLLMGFPTYGRTFRLLKASKNELGAEAVGPASPGKYTKQAGFLAYYEVCSFVQRAKKRWIDHQYVPYAYRGKEWVGYDDDISFSYKAFFIKKEHFGGAMVWTLDLDDVRGTFCGTGPFPLVYMLNDLLLKAEVSSTLSPGFGLSTTVNSSRTCPESLAVTKDLTTDLGILPLGGEAVATETHGRSDNMTVTPGGGLVAPTRPTLSFGKLTVAPEGKTESPGEKAMTP",ZP digestion time in 0.5% pronase after 1 hr exposure of IVM porcine oocytes to 125 and 250 μg/ml pOVGP1AB,465 min
"full-length porcine OVGP1 (oviduct-specific glycoprotein, oviductin), recombinant, histidine-tagged (natural protein) HKLVCYFANWAFSRPGPASILPRDLDPFLCTHLVFAFASMNDSQIVAKDARDESIFYPEFNQLKERNEKLKTLLSIGGWNFGTSRFTTMLSTFTNREKFIRSAIGLLRTHGFDGLDLFFLYPGLRGSPRRDRWNFLFLLEELLLAFRREAQLTMRPRLLLSAAVSADPHVIQKAYDVRLLGRLLDFINVLSYDLHGSWEKVTGHNSPLFSLSDDPKSSAYTMNYWRKLGAPPEKLLMGFPTYGRTFRLLKASKNELGAEAVGPASPGKYTKQAGFLAYYEVCSFVQRAKKRWIDHQYVPYAYRGKEWVGYDDDISFSYKAFFIKKEHFGGAMVWTLDLDDVRGTFCGTGPFPLVYMLNDLLLKAEVSSTLSPGFGLSTTVNSSRTCPESLAVTKDLTTDLGILPLGGEAVATETHGRSDNMTVTPGGGLVAPTRPTLSFGKLTVAPEGKTESPGEKAMTPVGHPSVTPGDMSVPPVPIQTGDRITPPRRQAVAPEKMTLPSGKRSD",ZP digestion time in 0.5% pronase after 1 hr exposure of IVM porcine oocytes to 125 and 250 μg/ml pOVGP1,102 min
